Laboratory results: publication PMC3547953

Target: tumor necrosis factor-alpha (TNF-α) (UniProt P01375)
UniProt P01375, sequence (P01375 77-233): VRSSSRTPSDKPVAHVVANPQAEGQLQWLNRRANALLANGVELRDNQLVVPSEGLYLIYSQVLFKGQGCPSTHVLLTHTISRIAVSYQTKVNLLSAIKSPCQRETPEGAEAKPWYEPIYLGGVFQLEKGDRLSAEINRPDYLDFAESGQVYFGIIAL

Work on “anti-TNF-α antibody (ENBREL), a chimeric molecule combining the ligand-binding domain of the TNF-receptor 2 and the Fc-domain of human IgG1 (Fc fusion)” yielded an apoptosis (TUNEL, DNA strand breaks) of uninfected monocytes induced by added TNF-α, with anti-TNF-α mAb (ENBREL, 1 µg/ml) of 50%.
